The data set addresses purified poly(ADP-ribose) polymerase (PARP).

These results are taken from US7097972.

B1: purified recombinant human ICE (protein)
chain 1: NPAMPTSSGSEGNVKLCSLEEAQRIWKQKSAEIYPIMDKSSRTRLALIICNEEFDSIPRRTGAEVDITGMTMLLQNLGYSVDVKKNLTASDMTTELEAFAHRPEHKTSDSTFLVFMSHGIREGICGKKHSEQVPDILQLNAIFNMLNTKNCPSLKDKPKVIIIQACRGDSPGVVWFKD
chain 2: AIKKAHIEKDFIAFCSSTPDNVSWRHPTMGSVFIGRLIEHMQEYACSCDVEEIFRKVRFSFEQPDGRAQMPTTERVTLTRCFYLFPGH
For the protein B1, the “proteolytic cleavage of purified PARP, anti-PARP immunoblot” value is “Purified ICE did not cleave PARP”.
